Test results from US20050064411.

Legend:
FLAG-AICD, P05067 = target: T1, FLAG-AICD, P05067
T1 chain: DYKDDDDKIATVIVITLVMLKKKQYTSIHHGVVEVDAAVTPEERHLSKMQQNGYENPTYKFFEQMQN

B1: NEDL-1 protein (protein)
chain: MASPSRNSQSRRRCKEPLRYSYNPDQFHNMDLRGGPHDGVTIPRSTSDTDLVTSDSRSTLMVSSSYYSIGHSQDLVIHWDIKEEVDAGDWIGMYLIDEVLSENFLDYKNRGVNGSHRGQIIWKIDASSYFVEPETKICFKYYHGVSGALRATTPSVTVKNSAAPIFKSIGADETVQGQGSRRLISFSLSDFQAMGLKKGMFFNPDPYLKISIQPGKHSIFPALPHHGQERRSKIIGNTVNPIWQAEQFSFVSLPTDVLEIEVKDKFAKSRPIIKRFLGKLSMPVQRLLERHAIGDRVVSYTLGRRLPTDHVSGQLQFRFEITSSIHPDDEEISLSTEPESAQIQDSPMNNLMESGSGEPRSEAPESSESWKPEQLGEGSVPDRPGNQSIELSRPAEEAAVITEAGDQGMVSVGPEGAGELLAQVQKDIQPAPSAEELAEQLDLGEEASALLLEDGEAPASTKEEPLEEEATTQSRAGREEEEKEQEEEGDVSTLEQGEGRLQLRASVKRKSRPCSLPVSELETVIASACGDPETPRTHYIRIHTLLHSMPSAQGGSAAEEEDGAEEESTLKDSSEKDGLSEVDTVAADPSALEEDREEPEGATPGTAHPGHSGGHFPSLANGAAQDGDTHPSTGSESDSSPRQGGDHSCEGCDASCCSPSCYSSSCYSTSCYSSSCYSASCYSPSCYNGNRFASHTRFSSVDSAKISESTVFSSQDDEEEENSAFESVPDSMQSPELDPESTNGAGPWQDELAAPSGHVERSPEGLESPVAGPSNRREGECPILHNSQPVSQLPSLRPEHHHYPTIDEPLPPNWEARIDSHGRVFYVDHVNRTTTWQRPTAAATPDGMRRSGSIQQMEQLNRRYQNIQRTIATERSEEDSGSQSCEQAPAGGGGGGGSDSEAESSQSSLDLRREGSLSPVNSQKITLLLQSPAVKFITNPEFFTVLHANYSAYRVFTSSTCLKHMILKVRRDARNFERYQHNRDLVNFINMFADTRLELPRGWEIKTDQQGKSFFVDHNSRATTFIDPRIPLQNGRLPNHLTHRQHLQRLRSYSAGEASEVSRNRGASLLARPGHSLVAAIRSQHQHESLPLAYNDKIVAFLRQPNIFEMLQERQPSLARNHTLREKIHYIRTEGNHGLEKLSCDADLVILLSLFEEEIMSYVPLQAAFHPGYSFSPRCSPCSSPQNSPGLQRASARAPSPYRRDFEAKLRNFYRKLEAKGFGQGPGKIKLIIRRDHLLEGTFNQVMAYSRKELQRNKLYVTFVGEEGLDYSGPSREFFFLLSQELFNPYYGLFEYSANDTYTVQISPMSAFVENHLEWFRFSGRILGLALIHQYLLDAFFTRPFYKALLRLPCDLSDLEYLDEEFHQSLQWMKDNNITDILDLTFTVNEEVFGQVTERELKSGGANTQVTEKNKKEYIERMVKWRVERGVVQQTEALVRGFYEVVDSRLVSVFDARELELVIAGTAEIDLNDWRNNTEYRGGYHDGHLVIRWFWAAVERFNNEQRLRLLQFVTGTSSVPYEGFAALRGSNGLRRFCIEKWGKITSLPRAHTCFNRLDLPPYPSYSMLYEKLLTAVEETSTFGLE
SOD1 mutants
  ubiquitination (immunoprecipitation with FLAG, blotting with anti-ubiquitin antibody, FIG. 13): the degree of ubiquitination drastically increases in the presence of NEDL-1
FLAG-AICD, P05067
  ubiquitination (bands increasing by about 9 kD detected with anti-ubiquitin antibody): It is understood that ACID alone is subjected to ubiquitination by NEDL-1.
